Positions count from the first letter of the chain named. One block for each binder: values may come before it.
Target: Vδ1 γδ T cell receptor on skin-derived γδ T cells (human)
Test: cell-based or functional assay

- T cell degranulation (EC50 µg/ml - 3 donors): 0.005 µg/mL
B1: 1139_P01_E04 (IgG1) (antibody, V domains shown)
VH: QVQLQQSGPGLVKPSQTLSLTCAISGDSVSSNSAAWNWIRQSPSRGLEWLGRTYYRSKWYNDYAVSVRSRITINPDTSKNQFSLQLNSVTPEDTAVYYCARSWNDAFDIWGQGTTVTVSS
VL: DIVMTQSPSTLSASIGDRVTITCRAGQSISTWLAWYQQKPGKAPKLLIYDASSLESGVPLRFSGSGSGTDFTLTISSLQPEDFATYYCQQSYSTPLTFGGGTKVEIK

- T cell degranulation (EC50 µg/ml - 3 donors): 0.001 µg/mL
B2: 1245_P01_G09 (IgG1) (antibody, V domains shown)
VH: QVQLQQSGPGLVKPSQTLSLTCAISGDSVSSNSAAWNWIRQSPSRGLEWLGRTYYGSKWYNEYALSVKSRIIINPDTSKNQFSLQLNSVTPEDTAVYYCARDYYYSMDVWGQGTLVTVSS
VL: B1 VL with D70E, T74A, E81D, L96V, G100Q

- T cell degranulation (EC50 µg/ml - 3 donors): 0.002 µg/mL
B3: 1245_P02_G04 (IgG1, made in HEK) (antibody, V domains shown)
VH: QVQLQQSGPGLVKPSQTLSLTCAISGDSVSSKSAAWNWIRQSPSRGLEWLGRTYYRSKWSTDYAASVKSRITINPDTSKNQLSLQLNSVTPEDTAVYYCARTWSGYVDVWGQGTLVTVSS
VL: DIQMTQSPPALSASVGDRVTITCRASQDINDWLAWYQHKPGKAPKLLIYDASSLESGVPSRFSGSGSGTEFTLTISSLQPDDFATYYCQQSYSTPQVTFGQGTRLEIK
- Killing assay (EC50 µg/ml - 2 or 3 donors): 0.1 µg/mL

- T cell degranulation (EC50 µg/ml - 3 donors): 0.001 µg/mL
B4: 1245_P01_G06 (IgG1) (antibody, V domains shown)
VH: QVQLVESGGGLVKPGGSLRLSCAASGFTFSDYYMSWIRQAPGKGLEWVSYISSSGSTIYYADSVKGRFTISRDNAKNSLYLQMNSLRAEDTAVYYCARHSWNDAFDVWGQGTLVTVSS
VL: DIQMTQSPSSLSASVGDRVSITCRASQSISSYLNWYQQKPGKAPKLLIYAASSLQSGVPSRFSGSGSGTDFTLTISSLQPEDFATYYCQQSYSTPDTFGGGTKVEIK

B5: 1245_P01_E07 (IgG1) (antibody, V domains shown)
VH: B4 VH with H99V, S100D, W101Y, N102A, V107I
VL: DIQMTQSPSSLSASVGDRVTIACRAGQSIGTYLNWYQQKPGKAPKLLIYVASSLQSGVPSRFSGSGSGTEFTLTISSLQPEDFATYYCQQSYSTLLTFGRGTKVEIK
- Killing assay (EC50 µg/ml - 2 or 3 donors): 0.06 µg/mL

B6: 1252_P01_C08 (IgG1) (antibody, V domains shown)
VH: EVQLLESGGGLVQPGRSLRLSCAASGFTVSSNYMSWVRQAPGKGLEWVSVIYSGGSTYYADSVKGRFTISRDNSKNTLYLQMNSLRAEDTAVYYCASPIELGAFDIWGQGTLVTVSS
VL: SSYELTQPPSVSVAPGKTARITCGGNNIGSQSVHWYQQKPGQAPMLVIYYDSDRPSGIPERFSGSNSGNTATLTISRVEAGDEADYYCQVWDSSSDHVVFGGGTKLTVL
- Killing assay (EC50 µg/ml - 2 or 3 donors): 0.02 µg/mL

From patent US20220403025A1 (GAMMADELTA THERAPEUTICS, published 2022)
